Publication PMC6400558 (2019)

Molecular target: T1, dynein intermediate chain (DIC), Q13409
T1 chain: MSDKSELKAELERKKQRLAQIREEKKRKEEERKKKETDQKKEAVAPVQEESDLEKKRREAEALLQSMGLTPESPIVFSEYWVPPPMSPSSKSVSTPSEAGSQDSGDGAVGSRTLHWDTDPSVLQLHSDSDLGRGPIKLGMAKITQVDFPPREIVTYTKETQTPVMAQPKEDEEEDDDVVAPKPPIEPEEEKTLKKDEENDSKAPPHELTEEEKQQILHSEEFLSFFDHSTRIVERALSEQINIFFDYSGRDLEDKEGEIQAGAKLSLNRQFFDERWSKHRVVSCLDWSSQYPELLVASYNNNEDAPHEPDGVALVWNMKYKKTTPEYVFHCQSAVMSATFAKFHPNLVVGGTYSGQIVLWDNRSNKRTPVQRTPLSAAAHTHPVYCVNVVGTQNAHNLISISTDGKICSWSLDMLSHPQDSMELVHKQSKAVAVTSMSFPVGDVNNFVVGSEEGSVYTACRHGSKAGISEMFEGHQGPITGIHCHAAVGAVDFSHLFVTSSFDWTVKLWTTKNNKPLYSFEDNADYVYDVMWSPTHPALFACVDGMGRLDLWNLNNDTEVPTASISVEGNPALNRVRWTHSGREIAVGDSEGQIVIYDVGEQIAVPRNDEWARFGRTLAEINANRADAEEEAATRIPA
Assay: MBP pull-down from HEK293T cell lysate, immunoblot, band intensity quantified
Conditions: chain shown with the change; n = 3; parent: est. 0.46; read off a plot

Binder	response (Pulldown/Input)
MBP-tagged Hook2 Hook+CC1 (N427) WT, Q96ED9 I150A (protein) MSVDKAELCGSLLTWLQTFHVPSPCASPQDLSSGLAVAYVLNQIDPSWFNEAWLQGISEDPGPNWKLKVSNLKMVLRSLVEYSQDVLAHPVSEEHLPDVSLIGEFSDPAELGKLLQLVLGCAISCEKKQDHIQRIMTLEESVQHVVMEAAQELMTKDTPDSLSPETYGNFDSQSRRYYFLSEEAEEGDELQQRCLDLERQLMLLSEEKQSLAQENAGLRERMGRPEGEGTPGLTAKKLLLLQSQLEQLQEENFRLESGREDERLRCAELEREVAELQHRNQALTSLAQEAQALKDEMDELRQSSERAGQLEATLTSCRRRLGELRELRRQVRQLEERNAGHAERTRQLEDELRRAGSLRAQLEAQRRQVQELQGQRQEEAMKAEKWLFECRNLEEKYESVTKEKERLLAERDSLREANEELRCAQLQ	0.02
MBP-tagged Hook2 Hook+CC1 (N427) WT, Q96ED9 Q143A (protein) MSVDKAELCGSLLTWLQTFHVPSPCASPQDLSSGLAVAYVLNQIDPSWFNEAWLQGISEDPGPNWKLKVSNLKMVLRSLVEYSQDVLAHPVSEEHLPDVSLIGEFSDPAELGKLLQLVLGCAISCEKKQDHIQRIMTLEESVAHVVMEAIQELMTKDTPDSLSPETYGNFDSQSRRYYFLSEEAEEGDELQQRCLDLERQLMLLSEEKQSLAQENAGLRERMGRPEGEGTPGLTAKKLLLLQSQLEQLQEENFRLESGREDERLRCAELEREVAELQHRNQALTSLAQEAQALKDEMDELRQSSERAGQLEATLTSCRRRLGELRELRRQVRQLEERNAGHAERTRQLEDELRRAGSLRAQLEAQRRQVQELQGQRQEEAMKAEKWLFECRNLEEKYESVTKEKERLLAERDSLREANEELRCAQLQ	0.02
